The assay has as its target T1, recombinant voltage-dependent anion channel-1 (human, UniProt P21796 1-283).
T1 construct: human voltage-dependent anion channel-1; cDNA amplified from pCMV6-XL5-VDAC-1 with primers designed on NM_003374, cloned into pET-28b by XhoI and NheI; band at about 32 kDa on SDS-PAGE; also called VDAC-1; hVDAC-1
In words: SPR; Kringle 5 coupled to a CM5 sensor chip by amino coupling (180 RU); VDAC-1 injected at 0 to 280.00 μmol·L^-1; uncoupled cell as reference; 25°C, 40 μl·min^-1; regeneration with 10 mmol·L^-1 HEPES pH 7.4, 300 mmol·L^-1 NaCl. As to conditions: both partners purified.

T1 sequence (P21796 whole entry): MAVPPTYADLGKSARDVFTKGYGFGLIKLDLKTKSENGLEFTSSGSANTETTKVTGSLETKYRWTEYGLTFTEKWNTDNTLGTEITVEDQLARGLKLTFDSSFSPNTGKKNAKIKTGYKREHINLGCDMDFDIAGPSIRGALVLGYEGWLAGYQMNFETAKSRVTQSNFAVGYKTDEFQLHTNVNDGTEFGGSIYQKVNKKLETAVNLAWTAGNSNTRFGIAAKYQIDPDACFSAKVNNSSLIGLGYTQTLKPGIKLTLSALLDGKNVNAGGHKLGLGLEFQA

B1: recombinant plasminogen Kringle 5 (domain or fragment, human)
chain: DCMFGNGKGYRGKRATTVTGTPCQDWAAQEPHRHSIFTPETNPRAGLEKNYCRNPDGDVGGPWCYTTNPRKLYDYCDVPQCAAP
notes: fifth kringle domain of plasminogen, about 80 amino acid residues; expressed from pET-28b-hK5; band at about 8 kDa on SDS-PAGE; The vector pET-28b-hK5 was built in the authors' laboratory; neither the residue limits nor the end of the 6 x His tag are told; also called hK5; source: E. coli BL21 (DE3), soluble, purified (Ni2+-chelated Sepharose 6 Fast Flow, Sephadex G-25)
Consider B1, for which the Ka was determined as 2430 M⁻¹.

The values are drawn from paper PMC5066947, “Voltage-Dependent Anion Channel-1, a Possible Ligand of Plasminogen Kringle 5” (PLoS ONE, 2016).
